In patent US20140286859A1:

Legend:
[1] = target: prostate specific membrane antigen (PSMA), full-length human (human) (UniProt Q04609); experiment: fraction of radiolabeled mAb bound to excess cells, PSMA-3T3 (bracket: 3T3 control)
[2] = target: prostate specific membrane antigen (PSMA), full-length human (human) (UniProt Q04609); experiment: fraction of radiolabeled mAb bound to excess cells, average of runs
[3] = target: prostate specific membrane antigen (PSMA), full-length human (human) (UniProt Q04609); experiment: fraction of radiolabeled mAb bound to excess cells, PSMA-3T3
[4] = target: prostate specific membrane antigen (PSMA), full-length human (human) (UniProt Q04609); experiment: cell-based or functional assay

Sequence of prostate specific membrane antigen (PSMA), full-length human (human) (Q04609 whole entry): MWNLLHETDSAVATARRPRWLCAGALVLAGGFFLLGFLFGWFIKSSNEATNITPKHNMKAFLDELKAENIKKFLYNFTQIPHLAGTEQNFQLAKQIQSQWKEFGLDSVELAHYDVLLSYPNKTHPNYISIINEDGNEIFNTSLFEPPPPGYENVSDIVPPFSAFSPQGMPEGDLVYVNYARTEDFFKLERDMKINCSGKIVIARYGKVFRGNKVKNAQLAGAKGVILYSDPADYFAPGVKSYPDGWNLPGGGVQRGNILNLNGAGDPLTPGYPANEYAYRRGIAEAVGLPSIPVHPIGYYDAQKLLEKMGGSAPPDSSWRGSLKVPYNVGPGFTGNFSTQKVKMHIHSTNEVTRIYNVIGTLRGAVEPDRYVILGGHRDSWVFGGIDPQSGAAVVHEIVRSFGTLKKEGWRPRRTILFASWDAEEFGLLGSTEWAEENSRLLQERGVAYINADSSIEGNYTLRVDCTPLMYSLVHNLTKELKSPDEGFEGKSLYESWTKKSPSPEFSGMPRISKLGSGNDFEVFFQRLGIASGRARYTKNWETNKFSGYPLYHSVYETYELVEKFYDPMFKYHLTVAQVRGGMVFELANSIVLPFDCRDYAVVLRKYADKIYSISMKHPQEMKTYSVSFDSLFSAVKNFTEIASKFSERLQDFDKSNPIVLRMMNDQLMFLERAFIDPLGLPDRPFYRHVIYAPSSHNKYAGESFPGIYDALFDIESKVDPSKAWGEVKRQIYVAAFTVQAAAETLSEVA

Immunoreactivity (%) [1] [%]	Immunoreactivity (%), average [2] [%]	Immunoreactivity (%) [3] [%]	Substance	immunotoxin cytotoxicity (saporin-linked secondary antibody) on C4-2 cells, LD50 [4] [pM]	immunotoxin cytotoxicity (saporin-linked secondary antibody) on PSMA-3T3 cells, LD50 [4] [pM]
54.9	56.7	58.5	^111In mJ591 (In-111 labeled CHX-A''-DTPA mJ591) (antibody)	–	–
–	–	–	mJ591 (antibody)	88.2	89
